Read-outs that look alike come from different tables or passages of the source.
Key:
[1] = molecular target: acrylodan-labeled FtsY C356 (E. coli) (UniProt P10121); assay: other fluorescence titration
[2] = molecular target: acrylodan-labeled FtsY C356 (E. coli) (UniProt P10121); assay: other fluorescence titration; remark: listed apart in the source
[3] = molecular target: RNC–SRP: coumarin-labeled SRP C235 loaded with ribosome–nascent chain complex (E. coli) (UniProt P0AGD7); assay: FRET or BRET
[4] = molecular target: RNC–SRP: coumarin-labeled SRP C235 loaded with ribosome–nascent chain complex (E. coli) (UniProt P0AGD7); assay: FRET or BRET; remark: listed apart in the source

| Substance | Kd [1] | Kd [2] | Kd [3] | Kd [4] |
| --- | --- | --- | --- | --- |
| signal recognition particle (SRP): Ffh with 4.5S RNA (from UniProt P0AGD7 1-453) (complex) | 145 nM | < 4 nM | – | – |
| BODIPY-fluorescein–labeled FtsY C487 (from UniProt P10121 1-497) (receptor) | – | – | 68 nM | 104 nM |
